# Experimental data: patent US20030022283A1 (published 2003)
# Several values for one entry are separate records, joined by “and”; a condition that tells them apart may be missing. Equal entries are not always repeated.
# T1: Rat NPY Y5 receptor, Y861 clone (rat, UniProt Q63634 1-445)
# T1 sequence: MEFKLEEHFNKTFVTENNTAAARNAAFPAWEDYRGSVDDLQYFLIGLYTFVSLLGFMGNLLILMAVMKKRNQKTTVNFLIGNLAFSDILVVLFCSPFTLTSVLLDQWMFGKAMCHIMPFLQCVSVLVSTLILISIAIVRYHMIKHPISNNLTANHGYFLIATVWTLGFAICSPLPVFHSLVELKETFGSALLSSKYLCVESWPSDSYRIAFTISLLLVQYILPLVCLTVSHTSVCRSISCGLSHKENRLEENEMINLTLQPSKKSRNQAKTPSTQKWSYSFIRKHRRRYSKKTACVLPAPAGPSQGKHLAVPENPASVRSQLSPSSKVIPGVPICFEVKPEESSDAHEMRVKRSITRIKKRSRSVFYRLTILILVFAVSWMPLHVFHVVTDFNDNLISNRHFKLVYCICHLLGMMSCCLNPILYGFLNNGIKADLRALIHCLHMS
# T2: Rat NPY Y5 receptor, 6B clone (Y217.24.13.6B) (rat, UniProt Q63634 1-445)
# T2 construct: 445 amino acid protein; assayed as membranes of transiently transfected COS-7 cells; Has proline where Y555/Y589/Y861 have leucine in the first transmembrane domain; also called RAT 6B Clone; Y5 clone
# T2 sequence: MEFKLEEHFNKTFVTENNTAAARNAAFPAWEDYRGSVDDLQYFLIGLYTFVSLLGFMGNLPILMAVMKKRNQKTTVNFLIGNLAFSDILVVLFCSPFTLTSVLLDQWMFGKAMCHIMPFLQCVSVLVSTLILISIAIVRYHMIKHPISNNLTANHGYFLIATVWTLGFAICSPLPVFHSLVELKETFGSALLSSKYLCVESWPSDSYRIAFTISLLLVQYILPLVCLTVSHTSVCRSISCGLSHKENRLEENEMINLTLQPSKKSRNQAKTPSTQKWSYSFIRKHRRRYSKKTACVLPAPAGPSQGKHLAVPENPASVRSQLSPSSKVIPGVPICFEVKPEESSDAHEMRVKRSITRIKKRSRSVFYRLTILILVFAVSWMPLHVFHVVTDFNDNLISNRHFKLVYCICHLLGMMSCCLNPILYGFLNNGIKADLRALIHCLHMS
# T3: Human NPY Y5 receptor (human, UniProt Q15761 1-445)
# T3 sequence: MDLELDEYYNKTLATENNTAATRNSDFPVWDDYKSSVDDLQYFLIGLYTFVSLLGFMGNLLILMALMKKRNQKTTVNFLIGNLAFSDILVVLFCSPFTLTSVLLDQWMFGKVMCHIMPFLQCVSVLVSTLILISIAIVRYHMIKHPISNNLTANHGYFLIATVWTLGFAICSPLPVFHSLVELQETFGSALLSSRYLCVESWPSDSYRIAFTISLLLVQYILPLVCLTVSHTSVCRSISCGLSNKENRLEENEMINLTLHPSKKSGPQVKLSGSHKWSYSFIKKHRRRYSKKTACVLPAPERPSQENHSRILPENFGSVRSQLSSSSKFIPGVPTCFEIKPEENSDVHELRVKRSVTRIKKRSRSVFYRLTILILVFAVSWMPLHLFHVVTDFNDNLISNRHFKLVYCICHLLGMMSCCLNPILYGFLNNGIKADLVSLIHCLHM
# Key:
# [1] = biological target: T1, Rat NPY Y5 receptor, Y861 clone; assay: competition with [125I]PYY, membranes of transiently transfected COS-7 cells
# [2] = biological target: T1, Rat NPY Y5 receptor, Y861 clone; assay: competition with [125I]PYY, membranes of transiently transfected COS-7 cells, one of the two experiments averaged
# [3] = biological target: T1, Rat NPY Y5 receptor, Y861 clone; assay: competition with [125I]PYY, membranes of transiently transfected COS-7 cells, average of two experiments
# [4] = biological target: Human NPY Y5 receptor (human) (UniProt Q15761); assay: competition with [125I]PYY, membranes of transiently transfected cells, one of the two experiments averaged
# [5] = biological target: T4, Rat Y4/PP1 receptor (clone) (rat, UniProt Q63447 1-375); assay: competition with rat [125I]PP, rat Y4/PP1 clone
# T4 construct: also called Rat Y4/PP1 (clone)
# T4 sequence (Q63447 whole entry): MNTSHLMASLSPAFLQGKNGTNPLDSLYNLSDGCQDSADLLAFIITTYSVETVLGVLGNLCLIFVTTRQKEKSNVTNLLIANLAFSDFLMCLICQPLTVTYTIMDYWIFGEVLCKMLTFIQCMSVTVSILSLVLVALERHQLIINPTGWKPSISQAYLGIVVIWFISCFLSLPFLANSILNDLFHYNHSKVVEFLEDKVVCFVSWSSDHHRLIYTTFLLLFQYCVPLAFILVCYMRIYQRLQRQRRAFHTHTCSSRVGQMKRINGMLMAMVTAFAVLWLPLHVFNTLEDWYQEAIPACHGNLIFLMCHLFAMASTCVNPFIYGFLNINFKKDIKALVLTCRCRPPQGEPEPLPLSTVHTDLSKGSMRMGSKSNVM
# [6] = biological target: Y5 receptor (clone not specified), transiently expressed in COS-7 cells; assay: saturation binding, membranes of transiently transfected cells, nonlinear regression
# [7] = biological target: T1, Rat NPY Y5 receptor, Y861 clone; assay: competition with [125I]PYY, membranes of stably transfected 293S cells
# [8] = biological target: Rat NPY Y5 receptor, Y555 clone (rat) (UniProt Q63634); assay: competition with [125I]PYY, membranes of transiently transfected COS-7 cells, one of the two experiments averaged
# [9] = biological target: Rat NPY Y5 receptor, 6B clone (Y217.24.13.6B) (rat) (UniProt Q63634); assay: as above
# [10] = biological target: Rat NPY Y5 receptor, Y555 clone (rat) (UniProt Q63634); assay: competition with [125I]PYY, membranes of transiently transfected COS-7 cells, average of two experiments
# [11] = biological target: T1, Rat NPY Y5 receptor, Y861 clone; assay: competition with [125I]PYY, rat Y5 Y861 clone
# [12] = biological target: T2, Rat NPY Y5 receptor, 6B clone …; assay: competition with [125I]PYY, membranes of transiently transfected COS-7 cells
# Protocol: The binding assays were performed on GF/C Millipore (Bedford, Mass.) 96-well plates pretreated with 0.02% polyethylenimine (PEI) for at least 2 hours prior to use. The PEI was aspirated from the plates on a vacuum manifold immediately before the samples were added to the wells. All peptides, tissue and radioligand were diluted with binding buffer (25 mM Tris, 120 mM NaCl, 5 mM KCl, 1.2 mM KH₂PO₄, 2.5 mM CaCl₂, 1.2 mM MgSO₄, 0.1% BSA and 0.5 mg/ml bacitracin, pH 7.4).
# Each point is the average value of triplicate determinations from a representative experiment. […] Kᵢ values were calculated from the IC₅₀ values using the Cheng-Prusoff correction, such that Kᵢ=IC₅₀/(1±(L/Kd)), where L is the radioligand concentration and Kd is the dissociation constant.
# [13] = biological target: T3, Human NPY Y5 receptor; assay: cell-based or functional assay
# [14] = biological target: T1, Rat NPY Y5 receptor, Y861 clone; assay: cell-based or functional assay
# [15] = biological target: T3, Human NPY Y5 receptor; assay: competition with [125I]PYY, membranes of stably transfected 293 cells
# [16] = biological target: T3, Human NPY Y5 receptor; assay: competition with [125I]PYY, membranes of transiently transfected cells, average of two experiments
# [17] = biological target: T3, Human NPY Y5 receptor; assay: competition with [125I]PYY, membranes of transiently transfected cells, one of the two experiments averaged
# (13-36)PYY (species not stated, Table 2) (peptide), sequence (P10082 41-64): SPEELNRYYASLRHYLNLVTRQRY
molecule,measurement,setting,value
porcine (18-36)NPY (from UniProt P01304 27-45) (peptide),Ki,[1],206 nM
porcine (3-36)NPY (from UniProt P01304 12-45) (peptide),Ki,[2],2.3 nM
same,Ki,[3],2 nM
rat (13-36)NPY (as printed in Table 1) (from UniProt P07808 42-65) (peptide),Ki,[1],86 nM
same,Ki,[4],89 nM and 65 nM
rat/human (Leu31Pro34)(3-36)NPY (from UniProt P01303 31-64) (peptide),IC50,[5],20 nM
[125I]PYY (radioiodinated peptide YY) (ligand),receptor density (Bmax) (fmol/mg protein),[6],140
"(13-36)PYY (species not stated, Table 2) (peptide)",Ki,[7],29 nM
porcine (13-36)NPY (from UniProt P01304 22-45) (peptide),IC50,[8],38 nM and 41 nM
same,Ki,[9],7.9 nM and 7.5 nM
same,Ki,[2],25 nM and 19 nM
same,IC50,[10],40 nM
(32D-Trp)NPY (peptide),IC50,[11],7 nM
"APLEPMYPGDYATHEQRAQYETQLRRYINTLTRPRY (ligand, UniProt P06303 30-65, looked up, mature; also called rPP; rat PP) [rat pancreatic polypeptide]",Ki,[12],62 nM
same,Ki,[1],296 nM
same,"EC50, forskolin-stimulated adenylate cyclase (cAMP radioimmunoassay), stably transfected 293 cells",[13],> 1000 nM
same,"EC50, forskolin-stimulated adenylate cyclase (cAMP radioimmunoassay), stably transfected 293S cells",[14],112 nM
same,Ki,[7],203 nM
same,IC50,[11],325 nM
same,IC50,[5],0.071 nM
same,Ki,[15],286 nM
same,Ki,[16],436 nM
same,Ki,[17],290 nM and 582 nM
"APLEPVYPGDNATPEQMAQYAADLRRYINMLTRPRY (ligand, UniProt P01298 30-65, looked up, mature; also called hPP) [human pancreatic polypeptide]",Ki,[1],4 nM
same,"EC50, forskolin-stimulated adenylate cyclase (cAMP radioimmunoassay), stably transfected 293S cells",[14],1 nM
same,Ki,[7],2.5 nM
same,IC50,[11],4.9 nM
same,IC50,[5],0.065 nM
